Reference: patent publication US20240400703A1

Assays:
[1] = molecular target: recombinant human OX40 fused to a His-tag (Acro Biosystems, cat. no. OX0-H5224) (human) (UniProt P43489); assay: BLI cross-block; first Ab (competitor): IgG1-CD134-ABBV368
[2] = molecular target: recombinant human OX40 fused to a His-tag (Acro Biosystems, cat. no. OX0-H5224) (human) (UniProt P43489); assay: BLI cross-block; first Ab (competitor): IgG1-CD134-49B4-RRE
[3] = molecular target: recombinant human OX40 fused to a His-tag (Acro Biosystems, cat. no. OX0-H5224) (human) (UniProt P43489); assay: BLI cross-block; first Ab (competitor): IgG1-CD134-003-HC6LC2-RR
[4] = molecular target: recombinant human OX40 fused to a His-tag (Acro Biosystems, cat. no. OX0-H5224) (human) (UniProt P43489); assay: BLI cross-block; first Ab (competitor): IgG1-CD134-Hu106
[5] = molecular target: recombinant human OX40 fused to a His-tag (Acro Biosystems, cat. no. OX0-H5224) (human) (UniProt P43489); assay: BLI cross-block; first Ab (competitor): IgG1-CD134-h3C8
[6] = molecular target: recombinant human OX40 fused to a His-tag (Acro Biosystems, cat. no. OX0-H5224) (human) (UniProt P43489); assay: BLI cross-block; first Ab (competitor): IgG1-CD134-MEDI0562
[7] = molecular target: recombinant human OX40 fused to a His-tag (Acro Biosystems, cat. no. OX0-H5224) (human) (UniProt P43489); assay: BLI cross-block; first Ab (competitor): IgG1-CD134-INCAGN1949
[8] = molecular target: recombinant human OX40 fused to a His-tag (Acro Biosystems, cat. no. OX0-H5224) (human) (UniProt P43489); assay: BLI cross-block; first Ab (competitor): IgG1-CD134-012
[9] = molecular target: recombinant human OX40 fused to a His-tag (Acro Biosystems, cat. no. OX0-H5224) (human) (UniProt P43489); assay: BLI cross-block; first Ab (competitor): IgG1-CD134-007
[10] = molecular target: recombinant human OX40 fused to a His-tag (Acro Biosystems, cat. no. OX0-H5224) (human) (UniProt P43489); assay: BLI cross-block; first Ab (competitor): IgG1-CD134-SF2
[11] = molecular target: recombinant human OX40 fused to a His-tag (Acro Biosystems, cat. no. OX0-H5224) (human) (UniProt P43489); assay: BLI cross-block; first Ab (competitor): IgG1-CD134-11D4
[12] = molecular target: recombinant human OX40 fused to a His-tag (Acro Biosystems, cat. no. OX0-H5224) (human) (UniProt P43489); assay: BLI cross-block; first Ab (competitor): IgG1-CD134-003
[13] = molecular target: recombinant human OX40 fused to a His-tag (Acro Biosystems, cat. no. OX0-H5224) (human) (UniProt P43489); assay: BLI cross-block; first Ab (competitor): IgG1-CD134-A4453
[14] = molecular target: recombinant human OX40 fused to a His-tag (Acro Biosystems, cat. no. OX0-H5224) (human) (UniProt P43489); assay: BLI cross-block; first Ab (competitor): IgG1-CD134-GBR830
[15] = molecular target: recombinant human OX40 fused to a His-tag (Acro Biosystems, cat. no. OX0-H5224) (human) (UniProt P43489); assay: BLI cross-block; first Ab (competitor): IgG1-CD134-IBI101
[16] = molecular target: recombinant human OX40 fused to a His-tag (Acro Biosystems, cat. no. OX0-H5224) (human) (UniProt P43489); assay: BLI cross-block; first Ab (competitor): IgG1-CD134-RG7888

Sequence of recombinant human OX40 fused to a His-tag (Acro Biosystems, cat. no. OX0-H5224) (human) (P43489 29-214 limits assumed): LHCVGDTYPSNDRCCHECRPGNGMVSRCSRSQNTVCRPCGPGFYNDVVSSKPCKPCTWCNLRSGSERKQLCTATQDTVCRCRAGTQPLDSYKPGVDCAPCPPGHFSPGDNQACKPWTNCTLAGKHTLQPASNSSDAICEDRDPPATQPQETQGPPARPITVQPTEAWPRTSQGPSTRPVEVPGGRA

Binder | association response [1] [nm] | association response [2] [nm] | association response [3] [nm] | association response [4] [nm] | association response [5] [nm] | association response [6] [nm] | association response [7] [nm] | association response [8] [nm] | association response [9] [nm] | association response [10] [nm] | association response [11] [nm] | association response [12] [nm] | association response [13] [nm] | association response [14] [nm] | association response [15] [nm] | association response [16] [nm]
IgG1-CD134-GBR830 (antibody, INN chains, looked up, V domains shown, IgG1) VH: QVTLKESGPALVKPTQTLTLTCSFSGFSLSTSGMGVGWIRQPPGKALEWIAHIWWDDDKYYNTALKTRLTISKDTSKNQVVLTMTNMDPVDTATYYCARIDWDGFAYWGQGTLVTVSS VL: EIVLTQSPATLSLSPGERATLSCRASSSVSYMHWYQQKPGQAPRPWIYATSNRATGIPARFSGSGSGTDYTLTISSLEPEDFAVYYCQQWSSNPWTFGQGTKVEIK | -0.01 | 0 | 1.08 | 0.02 | -0.02 | 0.33 | 0.01 | 0.84 | 0.07 | 0.19 | 0.13 | 0.97 | 0.28 | 0.01 | 0.02 | 0.61
IgG1-CD134-Hu106 (antibody, from another filing, V domains shown) VH: QVQLVQSGSELKKPGASVKVSCKASGYTFTDYSMHWVRQAPGQGLKWMGWINTETGEPTYADDFKGRFVFSLDTSVSTAYLQISSLKAEDTAVYYCANPYYDYVSYYAMDYWGQGTTVTVSS VL: DIQMTQSPSSLSASVGDRVTITCKASQDVSTAVAWYQQKPGKAPKLLIYSASYLYTGVPSRFSGSGSGTDFTFTISSLQPEDIATYYCQQHYSTPRTFGQGTKLEIK | -0.01 | -0.01 | 1.39 | 0.05 | 0.01 | 0.31 | 0 | 0.8 | 0.05 | 0.03 | 0.13 | 1.06 | 0.29 | 0.01 | 0.01 | 0.02
IgG1-CD134-ABBV368 (antibody, INN chains, looked up, V domains shown, IgG1) VH: EVQLVESGGGLVQPGGSLRLSCAASGFTFSRYGMSWVRQAPGKGLELVATINSNGGRTYYPDSVKGRFTISRDNAKNSLYLQMNSLRAEDTAVYYCAREGITTAYAMDYWGQGTTVTVSS VL: DIVMTQSPDSLAVSLGERATINCKASQSVDYDGDSYMHWYQQKPGQPPKLLIYAASILESGVPDRFSGSGSGTDFTLTISSLQAEDVAVYYCQQSNEDPRTFGGGTKVEIK | -0.04 | 0 | 1.68 | 0 | -0.03 | -0.01 | 0.01 | 0.87 | 0 | 0.04 | 0.13 | 1.27 | 0.29 | 0.01 | 0.01 | 0.02

Second part, the binder after the results:

association response [1] [nm] | association response [2] [nm] | association response [3] [nm] | association response [4] [nm] | association response [5] [nm] | association response [6] [nm] | association response [7] [nm] | association response [8] [nm] | association response [9] [nm] | association response [10] [nm] | association response [11] [nm] | association response [12] [nm] | association response [13] [nm] | association response [14] [nm] | association response [15] [nm] | association response [16] [nm] | Binder
-0.02 | 0.15 | 1.73 | 0.69 | 0.54 | 0 | 0 | 0.82 | 1.14 | 0.01 | 0.14 | 1.39 | 0.41 | 0.32 | 0.28 | 0 | IgG1-CD134-MEDI0562 (antibody, INN chains, looked up, V domains shown, IgG1) VH: QVQLQESGPGLVKPSQTLSLTCAVYGGSFSSGYWNWIRKHPGKGLEYIGYISYNGITYHNPSLKSRITINRDTSKNQYSLQLNSVTPEDTAVYYCARYKYDYDGGHAMDYWGQGTLVTVSS VL: DIQMTQSPSSLSASVGDRVTITCRASQDISNYLNWYQQKPGKAPKLLIYYTSKLHSGVPSRFSGSGSGTDYTLTISSLQPEDFATYYCQQGSALPWTFGQGTKVEIK
0.01 | 0.02 | 1.38 | 0.1 | 0.41 | 0.02 | 0.02 | 0.54 | 0.47 | 0.01 | 0.11 | 0.66 | 0.47 | 0.26 | 0.23 | 0.02 | IgG1-CD134-RG7888 (antibody, INN chains, looked up, V domains shown, IgG1) VH: EVQLVQSGAEVKKPGASVKVSCKASGYTFTDSYMSWVRQAPGQGLEWIGDMYPDNGDSSYNQKFRERVTITRDTSTSTAYLELSSLRSEDTAVYYCVLAPRWYFSVWGQGTLVTVSS VL: DIQMTQSPSSLSASVGDRVTITCRASQDISNYLNWYQQKPGKAPKLLIYYTSRLRSGVPSRFSGSGSGTDFTLTISSLQPEDFATYYCQQGHTLPPTFGQGTKVEIK
